Results from PMC1557824.
Each block holds one molecule with its values, some of them ahead of it.

Assays:
[1] = target: recombinant Pichia pastoris zeta crystallin (PpZTA1) (Pichia pastoris); assay: SEC
[2] = target: T1, PpZTA1 (zeta crystallin / quinone oxidoreductase), recombinant (Pichia pastoris, UniProt F2QTB9 1-336); assay: EMSA
T1 sequence: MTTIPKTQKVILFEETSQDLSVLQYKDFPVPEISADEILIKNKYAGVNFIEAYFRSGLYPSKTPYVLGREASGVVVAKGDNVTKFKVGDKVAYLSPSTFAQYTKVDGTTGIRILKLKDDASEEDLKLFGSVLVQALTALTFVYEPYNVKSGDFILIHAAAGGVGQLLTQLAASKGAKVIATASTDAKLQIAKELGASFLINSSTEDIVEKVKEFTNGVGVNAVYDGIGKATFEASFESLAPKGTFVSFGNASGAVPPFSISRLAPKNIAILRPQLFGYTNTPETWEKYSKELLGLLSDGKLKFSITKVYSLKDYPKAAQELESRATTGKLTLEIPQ

stoichiometry N [1]: 2
Molecule: recombinant Pichia pastoris zeta crystallin (PpZTA1) (natural protein)

B1: 229 (ssDNA)
DNA: GAATACTGCTGATAGCCTAACGTTCATGATCAAAATTTAACTGTTCTAACCCCT
Kd [2]: 0.2 nM

B2: 174 (ssDNA)
DNA: ACTTGACAGCAATATATAAACAGAAGGAAGCTGCCCTGTCTTAAACCTTTTTTTTTATCA
Kd [2]: 0.1 nM

B3: 288 (ssDNA)
DNA: ACCCGCTTTTTGGATGATTATGCATTGTCTCCACATTGTATGCTTCCAAGATTCTGGTGG
Kd [2]: 0.9 nM
